Assay [1] addresses T1, human IL-11 (AAH12506.1, Pro22-Leu199) (human, UniProt P20809 22-199).
T1 construct: The range Pro22-Leu199 counts on AAH12506.1; The Octet runs say only 'human IL-11'; also called hIL-11
T1 chain: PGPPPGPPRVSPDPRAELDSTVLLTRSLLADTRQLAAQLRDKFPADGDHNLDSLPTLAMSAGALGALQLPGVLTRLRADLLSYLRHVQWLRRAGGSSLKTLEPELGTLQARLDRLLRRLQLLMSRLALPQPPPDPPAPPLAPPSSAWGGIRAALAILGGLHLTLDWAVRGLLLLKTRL
Put plainly: BLI (Octet), antibody captured, human IL-11 in solution. The procedure, abridged: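 Kd, kon and koff were derived by fitting blank-subtracted bio-layer interferometry curves to a 1:1 Langmuir binding model. On a Fortebio Octet QKe System, antibodies diluted in HBS-EP+ buffer were captured on AMC or AHC biosensors and exposed to 300 nM human IL-11 for 300 seconds of association and 300 seconds of dissociation.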
A general note: In BLI a coated tip is dipped into the sample, and binding shifts an interference pattern.

Assay [2] concerns the target T2, IL-11 (Cat. 12225-HNCE, Sino Biological Inc.) (UniProt P20809 22-199, limits assumed).
T2 sequence (looked up): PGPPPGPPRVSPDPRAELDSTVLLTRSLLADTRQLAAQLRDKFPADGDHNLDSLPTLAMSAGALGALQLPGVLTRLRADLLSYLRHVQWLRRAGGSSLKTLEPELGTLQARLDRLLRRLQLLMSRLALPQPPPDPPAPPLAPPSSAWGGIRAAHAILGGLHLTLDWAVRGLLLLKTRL
In words: cell-based or functional assay.

The results in this text go back to patent publication US20250197488A1 (MABWELL SHANGHAI BIOSCIENCE, published 2025).

What is called Kd is the equilibrium constant for the complex coming apart. A higher Kd goes with lower affinity. As a reminder, the koff is the rate constant with which the complex falls apart. A high value points to a short-lived complex. The term kon denotes a measure of how fast the partners come together. Low readings indicate slower complex formation, high ones faster complex formation.

B1: hz18A10-VHm19 + hz18A10-VLm19 (antibody, human IgG1, kappa, V domains shown)
VH: EVQLVQSGAEVKKPGASVKVSCKASGYTFTHYNMDWVRQAPGQGLEWMGTIYPGNADTSYNQKFKGRVTMTRDTSTSTVYMELSSLRSEDTAVYYCARGDLYALDYWGQGTLVTVSS
VL: DIQMTQSPSSLSASVGDRVTITCKASQSVYRDVAWYQQKPGKAPKLLIYSASNRYTGVPSRFSGSGSGTDFTFTISSLQPEDIATYYCQHDYSSPYTFGQGTKLEIKR
notes: named hz18A10m19; also called hz18A10m19
Consider B1, for which, in assay [1], the affinity, expressed as Kd, was 0.101 nM; the koff worked out at 0.0001 s⁻¹; the on-rate constant (kon) was 993000 M⁻¹ s⁻¹. For the same molecule, the “Blocking activity (IC50), STAT3-luc reporter” value (“Blocking activity (IC50)” below) in assay [2] worked out at 0.13 µg/mL.

B2: hz18A10-VH + hz18A10-VLm9 (antibody, V domains shown)
VH: EVQLVQSGAEVKKPGASVKVSCKASGYTFTTYNMDWVRQAPGQGLEWMGTIYPGNGDTSYNQKFKGRVTMTRDTSTSTVYMELSSLRSEDTAVYYCARGDLYALDYWGQGTLVTVSS
VL: DIQMTQSPSSLSASVGDRVTITCKASQSVYSDVAWYQQKPGKAPKLLIYSASNRYTGVPSRFSGSGSGTDFTFTISSLQPEDIATYYCQHDYSSPYTFGQGTKLEIK
notes: Constant regions not restated for this antibody
Regarding B2, in assay [1], the Kd turned out to be 0.54 nM, the koff was found to be 0.000463 s⁻¹ and the kon stood at 859000 M⁻¹ s⁻¹. Moreover, the “Blocking activity (IC50)” value in assay [2] was 1.25 µg/mL.

B3: hz18A10-VH + hz18A10-VLm1 (antibody, V domains shown)
VH: EVQLVQSGAEVKKPGASVKVSCKASGYTFTTYNMDWVRQAPGQGLEWMGTIYPGNGDTSYNQKFKGRVTMTRDTSTSTVYMELSSLRSEDTAVYYCARGDLYALDYWGQGTLVTVSS
VL: DIQMTQSPSSLSASVGDRVTITCKASKSVSNDVAWYQQKPGKAPKLLIYSASNRYTGVPSRFSGSGSGTDFTFTISSLQPEDIATYYCQHDYSSPYTFGQGTKLEIK
notes: as for B2
Regarding B3, in assay [1], the affinity, expressed as Kd, was 4.61 nM; the koff came out at 0.00331 s⁻¹; the kon was 718000 M⁻¹ s⁻¹. Besides, the “Blocking activity (IC50)” value in assay [2] turned out to be 19.3 µg/mL.

B4: hz18A10-VH + hz18A10-VLm16 (antibody, V domains shown)
VH: EVQLVQSGAEVKKPGASVKVSCKASGYTFTTYNMDWVRQAPGQGLEWMGTIYPGNGDTSYNQKFKGRVTMTRDTSTSTVYMELSSLRSEDTAVYYCARGDLYALDYWGQGTLVTVSS
VL: DIQMTQSPSSLSASVGDRVTITCKASQSVSNDVAWYQQKPGKAPKLLIYRASRRYPGVPSRFSGSGSGTDFTFTISSLQPEDIATYYCQHDYSSPYTFGQGTKLEIK
notes: as for B2
For the molecule B4, in assay [1], the affinity, expressed as Kd, was 1.97 nM; the koff is 0.000938 s⁻¹; the on-rate (kon) turned out to be 699000 M⁻¹ s⁻¹. In addition, in assay [2], the “Blocking activity (IC50)” value turned out to be 9.89 µg/mL.

B5: hz18A10-VH + hz18A10-VLm6 (antibody, V domains shown)
VH: EVQLVQSGAEVKKPGASVKVSCKASGYTFTTYNMDWVRQAPGQGLEWMGTIYPGNGDTSYNQKFKGRVTMTRDTSTSTVYMELSSLRSEDTAVYYCARGDLYALDYWGQGTLVTVSS
VL: DIQMTQSPSSLSASVGDRVTITCKASQSVFHDVAWYQQKPGKAPKLLIYSASNRYTGVPSRFSGSGSGTDFTFTISSLQPEDIATYYCQHDYSSPYTFGQGTKLEIK
notes: as for B2
In assay [1], B5 had a Kd of 0.877 nM, a koff of 0.000794 s⁻¹ and a kon of 905000 M⁻¹ s⁻¹. In addition, the “Blocking activity (IC50)” value in assay [2] was 2.6 µg/mL.

B6: hz18A10-VH + hz18A10-VLm5 (antibody, V domains shown)
VH: EVQLVQSGAEVKKPGASVKVSCKASGYTFTTYNMDWVRQAPGQGLEWMGTIYPGNGDTSYNQKFKGRVTMTRDTSTSTVYMELSSLRSEDTAVYYCARGDLYALDYWGQGTLVTVSS
VL: DIQMTQSPSSLSASVGDRVTITCKASQSVSNDIAWYQQKPGKAPKLLIYSASNRYTGVPSRFSGSGSGTDFTFTISSLQPEDIATYYCQHDYSSPYTFGQGTKLEIK
notes: as for B2
As for B6, in assay [1], the Kd is 4.09 nM, the koff is 0.00281 s⁻¹ and the association rate constant (kon) was 688000 M⁻¹ s⁻¹. Further, in assay [2], the “Blocking activity (IC50)” value is 18.1 µg/mL.

B7: hz18A10-VH + hz18A10-VLm8 (antibody, V domains shown)
VH: EVQLVQSGAEVKKPGASVKVSCKASGYTFTTYNMDWVRQAPGQGLEWMGTIYPGNGDTSYNQKFKGRVTMTRDTSTSTVYMELSSLRSEDTAVYYCARGDLYALDYWGQGTLVTVSS
VL: DIQMTQSPSSLSASVGDRVTITCKASQSVYHDVAWYQQKPGKAPKLLIYSASNRYTGVPSRFSGSGSGTDFTFTISSLQPEDIATYYCQHDYSSPYTFGQGTKLEIK
notes: as for B2
Turning to B7, in assay [1], the Kd was determined as 0.803 nM, the koff worked out at 0.000746 s⁻¹ and the kon came to 929000 M⁻¹ s⁻¹. Besides, the “Blocking activity (IC50)” value in assay [2] is 3.12 µg/mL.

B8: hz18A10-VH + hz18A10-VLm17 (antibody, V domains shown)
VH: EVQLVQSGAEVKKPGASVKVSCKASGYTFTTYNMDWVRQAPGQGLEWMGTIYPGNGDTSYNQKFKGRVTMTRDTSTSTVYMELSSLRSEDTAVYYCARGDLYALDYWGQGTLVTVSS
VL: DIQMTQSPSSLSASVGDRVTITCKASQSVYRDVAWYQQKPGKAPKLLIYRASNRYTGVPSRFSGSGSGTDFTFTISSLQPEDIATYYCQHDYSSPYTFGQGTKLEIK
notes: as for B2
In the case of B8, in assay [1], the Kd was determined as 0.45 nM, the koff amounted to 0.000326 s⁻¹ and the kon was 725000 M⁻¹ s⁻¹. Moreover, in assay [2], the “Blocking activity (IC50)” value turned out to be 3.47 µg/mL.

B9: hz18A10-VH + hz18A10-VLm13 (antibody, V domains shown)
VH: EVQLVQSGAEVKKPGASVKVSCKASGYTFTTYNMDWVRQAPGQGLEWMGTIYPGNGDTSYNQKFKGRVTMTRDTSTSTVYMELSSLRSEDTAVYYCARGDLYALDYWGQGTLVTVSS
VL: DIQMTQSPSSLSASVGDRVTITCKASQSVSNDVAWYQQKPGKAPKLLIYSASRRYTGVPSRFSGSGSGTDFTFTISSLQPEDIATYYCQHDYSSPYTFGQGTKLEIK
notes: as for B2
In assay [1], B9 registered a Kd of 3.99 nM, a koff of 0.00268 s⁻¹ and a kon of 673000 M⁻¹ s⁻¹. Also, the “Blocking activity (IC50)” value in assay [2] stood at 14.2 µg/mL.

B10: hz18A10-VH + hz18A10-VLm10 (antibody, V domains shown)
VH: EVQLVQSGAEVKKPGASVKVSCKASGYTFTTYNMDWVRQAPGQGLEWMGTIYPGNGDTSYNQKFKGRVTMTRDTSTSTVYMELSSLRSEDTAVYYCARGDLYALDYWGQGTLVTVSS
VL: DIQMTQSPSSLSASVGDRVTITCKASQSVSNDLAWYQQKPGKAPKLLIYSASNRYTGVPSRFSGSGSGTDFTFTISSLQPEDIATYYCQHDYSSPYTFGQGTKLEIK
notes: as for B2
Regarding B10, in assay [1], the affinity, expressed as Kd, was 4.06 nM; the koff was 0.00295 s⁻¹; the kon was determined as 727000 M⁻¹ s⁻¹. In assay [2], the “Blocking activity (IC50)” value was determined as 12.7 µg/mL.

B11: hz18A10-VH + hz18A10-VLm11 (antibody, V domains shown)
VH: EVQLVQSGAEVKKPGASVKVSCKASGYTFTTYNMDWVRQAPGQGLEWMGTIYPGNGDTSYNQKFKGRVTMTRDTSTSTVYMELSSLRSEDTAVYYCARGDLYALDYWGQGTLVTVSS
VL: DIQMTQSPSSLSASVGDRVTITCKASQSVSNDVAWYQQKPGKAPKLLIYRASNRYTGVPSRFSGSGSGTDFTFTISSLQPEDIATYYCQHDYSSPYTFGQGTKLEIK
notes: as for B2
For the molecule B11, in assay [1], the Kd stood at 1.8 nM, the koff is 0.00134 s⁻¹ and the kon came to 747000 M⁻¹ s⁻¹. The “Blocking activity (IC50)” value in assay [2] amounted to 4.07 µg/mL.

B12: hz18A10-VH + hz18A10-VLm3 (antibody, V domains shown)
VH: EVQLVQSGAEVKKPGASVKVSCKASGYTFTTYNMDWVRQAPGQGLEWMGTIYPGNGDTSYNQKFKGRVTMTRDTSTSTVYMELSSLRSEDTAVYYCARGDLYALDYWGQGTLVTVSS
VL: DIQMTQSPSSLSASVGDRVTITCKASHSVSNDVAWYQQKPGKAPKLLIYSASNRYTGVPSRFSGSGSGTDFTFTISSLQPEDIATYYCQHDYSSPYTFGQGTKLEIK
notes: as for B2
Consider B12, for which, in assay [1], the affinity, expressed as Kd, was 3.94 nM; the koff was determined as 0.00277 s⁻¹; the kon turned out to be 704000 M⁻¹ s⁻¹. In addition, the “Blocking activity (IC50)” value in assay [2] came out at 15.2 µg/mL.

B13: hz18A10-VH + hz18A10-VLm4 (antibody, V domains shown)
VH: EVQLVQSGAEVKKPGASVKVSCKASGYTFTTYNMDWVRQAPGQGLEWMGTIYPGNGDTSYNQKFKGRVTMTRDTSTSTVYMELSSLRSEDTAVYYCARGDLYALDYWGQGTLVTVSS
VL: DIQMTQSPSSLSASVGDRVTITCKASQFVSNDVAWYQQKPGKAPKLLIYSASNRYTGVPSRFSGSGSGTDFTFTISSLQPEDIATYYCQHDYSSPYTFGQGTKLEIK
notes: as for B2
As for B13, in assay [1], the Kd was found to be 3.12 nM, the koff turned out to be 0.00237 s⁻¹ and the kon worked out at 760000 M⁻¹ s⁻¹. In addition, the “Blocking activity (IC50)” value in assay [2] came to 16.4 µg/mL.

B14: hz18A10-VH + hz18A10-VLm2 (antibody, V domains shown)
VH: EVQLVQSGAEVKKPGASVKVSCKASGYTFTTYNMDWVRQAPGQGLEWMGTIYPGNGDTSYNQKFKGRVTMTRDTSTSTVYMELSSLRSEDTAVYYCARGDLYALDYWGQGTLVTVSS
VL: DIQMTQSPSSLSASVGDRVTITCKASYSVSNDVAWYQQKPGKAPKLLIYSASNRYTGVPSRFSGSGSGTDFTFTISSLQPEDIATYYCQHDYSSPYTFGQGTKLEIK
notes: as for B2
In assay [1], B14 came in with a Kd of 2.3 nM, a koff of 0.00185 s⁻¹ and an association rate constant (kon) of 806000 M⁻¹ s⁻¹. In assay [2], the “Blocking activity (IC50)” value amounted to 17.4 µg/mL.

B15: hz18A10-VH + hz18A10-VLm12 (antibody, V domains shown)
VH: EVQLVQSGAEVKKPGASVKVSCKASGYTFTTYNMDWVRQAPGQGLEWMGTIYPGNGDTSYNQKFKGRVTMTRDTSTSTVYMELSSLRSEDTAVYYCARGDLYALDYWGQGTLVTVSS
VL: DIQMTQSPSSLSASVGDRVTITCKASQSVSNDVAWYQQKPGKAPKLLIYSASSRYTGVPSRFSGSGSGTDFTFTISSLQPEDIATYYCQHDYSSPYTFGQGTKLEIK
notes: as for B2
In assay [1], B15 returned a Kd of 3.54 nM, a dissociation rate constant (koff) of 0.00265 s⁻¹ and a kon of 750000 M⁻¹ s⁻¹. Also, the “Blocking activity (IC50)” value in assay [2] was 11.6 µg/mL.
